Among the data in publication PMC3769224 are kcat/Km of GDP/GTP exchange in solution (tryptophan fluorescence kinetics, 37°C, 1 µM Arf) values, retold here.

Test [1] addresses BRAG2^(Sec7-PH 390–811) (human).
Test [2] has as its target BRAG2^(Sec7-PH 390–763) (human).

As for “Δ13Arf6 (from UniProt P62330 14-175) (domain or fragment)”, the figures for the kcat/Km of GDP/GTP exchange in solution (tryptophan fluorescence kinetics, 37°C, 1 µM Arf) (in test [1]; with BRAG2^Sec7 (human); in test [2]) were 50000 M⁻¹ s⁻¹, 10000 M⁻¹ s⁻¹ and 50000 M⁻¹ s⁻¹, respectively.

In the case of “Δ17Arf1 (from UniProt P84077 18-181) (domain or fragment)”, the values for the kcat/Km of GDP/GTP exchange in solution (tryptophan fluorescence kinetics, 37°C, 1 µM Arf) (in test [1]; in the test with BRAG2^Sec7 (human); in test [2]) were 250000 M⁻¹ s⁻¹, 20000 M⁻¹ s⁻¹ and 240000 M⁻¹ s⁻¹, respectively.
